pKd: −log10 of the molar value. Values belong to the substance of their own block, whether it stands above or below them.
What was measured:
HEWL-Full24 (hen) [1] = target: HEWL-Full24 (hen) (UniProt P00698); experiment: BLI, mAb on AHC biosensor, 100 nM antigen, footnote e bounds the value
HEWL-Full12 (hen) [2] = target: HEWL-Full12 (hen) (UniProt P00698); experiment: as above
HEWL-Hel-1024 (hen) [3] = target: HEWL-Hel-1024 (hen) (UniProt P00698); experiment: BLI, mAb on AHC biosensor, 100 nM antigen
[4] = target: Hen Egg White Lysozyme (HEWL), wild type (hen) (UniProt P00698); experiment: BLI, mAb on AHC biosensor, 100 nM antigen
[5] = target: Hen Egg White Lysozyme (HEWL), wild type (hen) (UniProt P00698); experiment: ELISA, HEWL derivative coated, antibody in tenfold dilutions, A450
HEWL-Hel-102 (hen) [6] = target: HEWL-Hel-102 (hen) (UniProt P00698); experiment: BLI, mAb on AHC biosensor, 100 nM antigen, footnote c bounds the value
HEWL-Hel-1024 (hen) [7] = target: HEWL-Hel-1024 (hen) (UniProt P00698); experiment: as above
HEWL-Full24 (hen) [8] = target: HEWL-Full24 (hen) (UniProt P00698); experiment: as above
HEWL-Full12 (hen) [9] = target: HEWL-Full12 (hen) (UniProt P00698); experiment: as above
HEWL-Hel-1012 (hen) [10] = target: HEWL-Hel-1012 (hen) (UniProt P00698); experiment: as above
HEWL-Hel-104 (hen) [11] = target: HEWL-Hel-104 (hen) (UniProt P00698); experiment: as above
HEWL-Hel-102 (hen) [12] = target: HEWL-Hel-102 (hen) (UniProt P00698); experiment: BLI, mAb on AHC biosensor, 100 nM antigen
HEWL-Hel-1012 (hen) [13] = target: HEWL-Hel-1012 (hen) (UniProt P00698); experiment: BLI, mAb on AHC biosensor, 100 nM antigen
HEWL-Hel-104 (hen) [14] = target: HEWL-Hel-104 (hen) (UniProt P00698); experiment: BLI, mAb on AHC biosensor, 100 nM antigen

Sequence of UniProt P00698 (P00698 19-147 limits assumed): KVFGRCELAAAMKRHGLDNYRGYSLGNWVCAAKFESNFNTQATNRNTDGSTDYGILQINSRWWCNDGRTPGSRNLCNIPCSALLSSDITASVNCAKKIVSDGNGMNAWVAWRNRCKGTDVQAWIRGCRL

Substance: D1.3 (antibody)
pKd (HEWL-Full24 (hen) [1]): 7.96
pKd (HEWL-Full12 (hen) [2]): 7.57
pKd (HEWL-Hel-1024 (hen) [3]): 7.96
pKd [4]: 9.24

EC50 (read off the curve) [5]: 0.5 nM
pKd [4]: 8.64
Substance: D11.15 (antibody)

Substance: HyHEL-5 (antibody)
pKd [4]: 10.74
pKd (HEWL-Hel-102 (hen) [6]): 9.92
pKd (HEWL-Hel-1024 (hen) [7]): 9.70
pKd (HEWL-Full24 (hen) [8]): 9.77
pKd (HEWL-Full12 (hen) [9]): 9.44
pKd (HEWL-Hel-1012 (hen) [10]): 9.96
pKd (HEWL-Hel-104 (hen) [11]): 9.85

Substance: HyHEL-10 (antibody)
pKd (HEWL-Hel-102 (hen) [12]): 10.17
pKd (HEWL-Hel-1024 (hen) [3]): 9.59
pKd (HEWL-Hel-1012 (hen) [13]): 10.26
pKd (HEWL-Hel-104 (hen) [14]): 10.04
